How the values were obtained:
Saccharomyces cerevisiae [1] = test: protein stability index of tFT-peptide fusion in wild type (PSI (0-1 scale)); higher = more stable (slower turnover); conditions: genetic background: wild type
Experimental: (§1)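 MPS profiling in S. cerevisiae of two library types built from selected 12-aa C-degron peptides (IN1, IN2, LN1, LN3, VN2, R1-R5, W1-W3, Atg1 and Rpa12 C-termini): saturation mutagenesis libraries and C-terminal +1 capping libraries (13 aa). Each peptide is fused to the C-terminus of a sfGFP-mCherry timer, after a GGGS linker. Cells are FACS-sorted into 8 mCherry/sfGFP bins and sequenced. PSI runs from 0 (unstable) to 1 (stable), measured once in wild type and in the das1Δ or doa10Δ background.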

Saccharomyces cerevisiae [2] = test: protein stability index of tFT-peptide fusion in deletion strain of DAS1 (PSI (0-1 scale)); higher = more stable (slower turnover)
Experimental: as §1
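Throughout, for protein stability index of tFT-peptide fusion in deletion strain of DAS1: PSI is a weighted mean of each variant's read distribution over the sorted stability bins, computed only for variants having over 10 reads in total.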
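Throughout, for protein stability index of tFT-peptide fusion in wild type: PSI derived as read-weighted mean over the 8 sorting bins, only variants exceeding 10 total reads kept, mCherry placed adjacent to the peptide and sfGFP distal.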

Row | Sequence | protein stability index (Saccharomyces cerevisiae [1]) | protein stability index (Saccharomyces cerevisiae [2])
1 | LVVYLSCVACIND | 0.0204 | 0.0356
2 | LVVYLSCVACING | 0.0204 | 0.0326
3 | LVVYLSCVACINN | 0.0233 | 0.037
4 | LVVYLSCVACIR | 0.0163 | 0.0325
5 | LVVYLSCVACIY | 0.0122 | 0.0359
6 | LVVYLSCVARIN | 0.0258 | 0.0375
7 | LVVYLSCVATIN | 0.0174 | 0.0278
8 | LVVYLSCVAVIN | 0.0169 | 0.0276
9 | LVVYLSCVCCIN | 0.461 | 0.415
10 | LVVYLSCVVCIN | 0.0309 | 0.0986
11 | LVVYLSKVACIN | 0.0955 | 0.38
12 | LVVYLSTVACIN | 0.0656 | 0.161
13 | LVVYLSWVACIN | 0.0137 | 0.0348
14 | LVVYPSCVACIN | 0.248 | 0.337
15 | LVVYVSCVACIN | 0.0192 | 0.0341
16 | LVVYWSCVACIN | 0.0151 | 0.0704
17 | NLIQPLPVQFLN | 0.0875 | 0.582
18 | NRWRVGLWRGAS | 0.454 | 0.685
19 | PDHRNHLIKLLN | 0.0948 | 0.589
20 | PDKANHLIKLLN | 0.183 | 0.594

Row | Sequence | protein stability index (Saccharomyces cerevisiae [1]) | protein stability index (Saccharomyces cerevisiae [2])
21 | PDKGNHLIKLLN | 0.23 | 0.635
22 | PDKINHLIKLLN | 0.135 | 0.578
23 | PDKRDHLIKLLN | 0.105 | 0.599
24 | PDKRMHLIKLLN | 0.0774 | 0.592
25 | PDKRNALIKLLN | 0.142 | 0.629
26 | PDKRNDLIKLLN | 0.184 | 0.626
27 | PDKRNHLAKLLN | 0.0907 | 0.547
28 | PDKRNHLGKLLN | 0.428 | 0.593
29 | PDKRNHLIKGLN | 0.546 | 0.619
30 | PDKRNHLIKLGN | 0.617 | 0.605
31 | PDKRNHLIKLLA | 0.114 | 0.57
32 | PDKRNHLIKLLC | 0.0722 | 0.577
33 | PDKRNHLIKLLF | 0.269 | 0.576
34 | PDKRNHLIKLLNQ | 0.316 | 0.667
35 | PDKRNHLIKLLNR | 0.652 | 0.668
36 | PDKRNHLIKLLNV | 0.203 | 0.659
37 | PDKRNHLIKLLS | 0.102 | 0.653
38 | PDKRNHLTKLLN | 0.17 | 0.584
39 | PDKRNHSIKLLN | 0.174 | 0.631
40 | PDKRNHTIKLLN | 0.176 | 0.582

Row | Sequence | protein stability index (Saccharomyces cerevisiae [1]) | protein stability index (Saccharomyces cerevisiae [2])
41 | PDKRNLLIKLLN | 0.124 | 0.608
42 | PDKRNNLIKLLN | 0.155 | 0.589
43 | PDKRNSLIKLLN | 0.163 | 0.723
44 | PDKRNTLIKLLN | 0.108 | 0.599
45 | PDKVNHLIKLLN | 0.129 | 0.658
46 | PLKRNHLIKLLN | 0.135 | 0.622
47 | PPLAASFWRVVG | 0.165 | 0.673
48 | PQKRNHLIKLLN | 0.113 | 0.597
49 | PSCAASFWRVVG | 0.154 | 0.691
50 | PSEAASFWRVVG | 0.175 | 0.702
51 | PSLAANFWRVVG | 0.159 | 0.689
52 | PSLAASAWRVVG | 0.155 | 0.666
53 | PSLAASFWEVVG | 0.697 | 0.712
54 | PSLAASFWRCVG | 0.144 | 0.674
55 | PSLAASFWRVSG | 0.205 | 0.684
56 | PSLAASFWRVVGE | 0.672 | 0.668
57 | PSLAASFWRVVGG | 0.651 | 0.682
58 | PSLAASFWRVVGM | 0.679 | 0.703
